Source: US20260055143A1, “HIGH AFFINITY VARIANTS OF SH2 DOMAINS” (Axoiya Inc., priority 2023, published 2026)
Changes are numbered by the printed parent chain.

B1: sFes^4, superbinder Fes SH2 domain variant (designed binder)
chain: MKIEEHHHHHHSSGKLGLNDIFEAQKIEWHESSGEDLYFQSGTTMDDYKDDDDKGGSEVQKPLHEQLWYHGAIPRAEVAELLVHSGDFLVRESQGRKVYVLSVLWDGLPRHFIIQSLDNLYRLEGEGFPSIPLLIDHLLSTQQPLTKKSGVVLHRAVPSR
B2: sFes^2, superbinder Fes SH2 domain variant (designed binder)
chain: B1 chain with S93R, G95R, R96K, K97Q, V98E
B3: sFes^5, superbinder Fes SH2 domain variant (designed binder)
chain: B1 chain with Q94I, G95S, R96K, K97Q, V98G, I113L
B4: sFes^3, superbinder Fes SH2 domain variant (designed binder)
chain: B1 chain with Q94P, G95R, R96I, K97Q, V98E
B5: sFes^6, superbinder Fes SH2 domain variant (designed binder)
chain: B1 chain with L89I, G95T, R96Y, K97P, V98G
B6: sFes^1 (SuperFes), superbinder Fes SH2 domain variant (designed binder)
chain: B1 chain with S93G, G95S, R96Q, K97P, V98D

target: pTyr-containing peptide (pEZ) derived from Ezrin, PPV{pTyr}EPVS; assay: fluorescence polarization, purified SH2 domain with fluorescein-labelled ezrin phosphopeptide

IC50 [nM] | Binder
17.4 | B1
3.9 | B2
39.7 | B3
14 | B4
48 | B5
2.7 | B6

target: pTyr-containing peptide (pEZ) derived from Ezrin, PPV{pTyr}EPVS; assay: fluorescence polarization; fold change over wt Fes SH2

Fold Change [fold] | Binder
77 | B1
344 | B2
33.8 | B3
95.9 | B4
28 | B5
493 | B6

target: pTyr-containing peptide (pEZ) derived from Ezrin, PPV{pTyr}EPVS; assay: phage ELISA, phage-displayed clone on immobilized peptide

binding signal for pEZ over that for the unphosphorylated peptide EZ [fold] | Binder
10 | B1
10 | B2
10 | B3
10 | B4
10 | B5
10 | B6
